These results are taken from the Immune Epitope Database (IEDB).

Targets include HLA-A*33:01; HLA-A*31:01; HLA-A*03:01; HLA-A*11:01; HLA-A*68:01.
Common to all, as to test: IEDB peptide-MHC binding, purified MHC/competitive/radioactivity; filed as Kd, often an IC50 or EC50 that approximates it; ≥ and ≤ were set here for values at or beyond the usual limits of such assays
Where [1] appears, read: source organism: Vaccinia virus WR.
[2] abbreviates: source organism: Mammarenavirus juninense.
The mark [3] stands for this setting: source organism: Lassa virus Josiah.
Where [4] appears, read: source organism: Mammarenavirus machupoense.
Setting [5] is: source organism: SARS coronavirus Tor2.
Where [6] appears, read: source organism: Lymphocytic choriomeningitis virus (strain WE).
Setting [7] is: source organism: Mammarenavirus lassaense.

What is called Kd is the constant that tells how readily two partners part at equilibrium. As for LSKRERQLAK, the dissociation constant Kd with HLA-A*33:01 (setting [1]) is at least 57900 nM; with HLA-A*31:01 (setting [1]), 1600 nM; with HLA-A*03:01 (setting [1]), 1360 nM; in the assay with HLA-A*11:01 (setting [1]), 1120 nM; with HLA-A*68:01 (setting [1]) it was 5940 nM.
Consider PLLCTLNKSH, for which the Kd was at least 70000 nM with HLA-A*33:01 (setting [2]); at least 70000 nM in the assay with HLA-A*31:01 (setting [2]); at least 70000 nM in the assay with HLA-A*03:01 (setting [2]); at least 69700 nM with HLA-A*11:01 (setting [2]); at least 70100 nM in the assay with HLA-A*68:01 (setting [2]).
With SMGFKVTTRR, the dissociation constant (Kd) stood at 747 nM in the assay with HLA-A*33:01 (setting [1]); 22.1 nM with HLA-A*31:01 (setting [1]); 97.2 nM with HLA-A*03:01 (setting [1]); 1050 nM in the assay with HLA-A*11:01 (setting [1]); 213 nM in the assay with HLA-A*68:01 (setting [1]).
In the same order, the values of KAEMQLKIDK are 19800 nM, 3270 nM, 3720 nM, 125 nM and at least 25200 nM.
In the same order, the values of VSLKKTNDK are at least 54800 nM, 8770 nM, 193 nM, 32.1 nM and 19400 nM.
Regarding DVQRTRCKY, the equilibrium dissociation constant (Kd) in the assay with HLA-A*33:01 (setting [1]) is at least 35300 nM; in the assay with HLA-A*31:01 (setting [1]) it was at least 77900 nM; with HLA-A*03:01 (setting [1]) it was at least 53900 nM; in the assay with HLA-A*11:01 (setting [1]), at least 77900 nM; with HLA-A*68:01 (setting [1]), 9190 nM.
In the case of DVDIYDAVR, the Kd with HLA-A*33:01 (setting [1]) is 2280 nM; in the assay with HLA-A*31:01 (setting [1]), 14000 nM; with HLA-A*03:01 (setting [1]) it was at least 53300 nM; in the assay with HLA-A*11:01 (setting [1]), at least 77900 nM; with HLA-A*68:01 (setting [1]), 179 nM.
VIGLSGDSER: the Kd with HLA-A*33:01 (setting [1]) is 1180 nM; with HLA-A*31:01 (setting [1]), 8890 nM; with HLA-A*03:01 (setting [1]), at least 63700 nM; with HLA-A*11:01 (setting [1]), 15900 nM; with HLA-A*68:01 (setting [1]) it was 182 nM.
THLGPQFCK: the dissociation constant (Kd) in the assay with HLA-A*33:01 (setting [3]) is at least 77700 nM; with HLA-A*31:01 (setting [3]) it was 15900 nM; with HLA-A*03:01 (setting [3]), 880 nM; with HLA-A*11:01 (setting [3]), 284 nM; with HLA-A*68:01 (setting [3]), 338 nM.
Take YCSTNHLSK: the equilibrium dissociation constant (Kd) with HLA-A*33:01 (setting [4]) was at least 77700 nM; with HLA-A*31:01 (setting [4]) it was at least 77900 nM; in the assay with HLA-A*03:01 (setting [4]) it was 19200 nM; with HLA-A*11:01 (setting [4]), 14900 nM; with HLA-A*68:01 (setting [4]), at least 23100 nM.
SVYAWERKK: the dissociation constant Kd with HLA-A*33:01 (setting [5]) is at least 38700 nM; in the assay with HLA-A*31:01 (setting [5]), 1940 nM; with HLA-A*03:01 (setting [5]) it was 134 nM; in the assay with HLA-A*11:01 (setting [5]) it was 230 nM; in the assay with HLA-A*68:01 (setting [5]), 5320 nM.
Taken in the same sequence, the figures for LQFAYSNRNR were 1270 nM, 5.59 nM, 890 nM, 1730 nM and 1050 nM.
For PADCFLVKLK, the Kd with HLA-A*33:01 (setting [1]) was 17100 nM; with HLA-A*31:01 (setting [1]) it was at least 31200 nM; in the assay with HLA-A*03:01 (setting [1]) it was 2910 nM; in the assay with HLA-A*11:01 (setting [1]), 1510 nM; with HLA-A*68:01 (setting [1]) it was at least 22400 nM.
With SRILFAQEK, the Kd was at least 77700 nM with HLA-A*33:01 (setting [6]); at least 38700 nM with HLA-A*31:01 (setting [6]); 15700 nM with HLA-A*03:01 (setting [6]); 773 nM in the assay with HLA-A*11:01 (setting [6]); 7330 nM with HLA-A*68:01 (setting [6]).
On to DARYCSEFIR, for which the Kd in the assay with HLA-A*33:01 (setting [1]) was 24.3 nM; with HLA-A*31:01 (setting [1]), 1130 nM; with HLA-A*03:01 (setting [1]), at least 70100 nM; with HLA-A*11:01 (setting [1]), at least 37200 nM; with HLA-A*68:01 (setting [1]), 249 nM.
As to STSLSEEFFH, the Kd with HLA-A*33:01 (setting [4]) is at least 64800 nM; in the assay with HLA-A*31:01 (setting [4]) it was 14700 nM; with HLA-A*03:01 (setting [4]) it was at least 43100 nM; in the assay with HLA-A*11:01 (setting [4]), 4310 nM; with HLA-A*68:01 (setting [4]), 13200 nM.
With KSPLPSLEY, the dissociation constant (Kd) was at least 77700 nM with HLA-A*33:01 (setting [1]); 7390 nM with HLA-A*31:01 (setting [1]); 278 nM with HLA-A*03:01 (setting [1]); 228 nM with HLA-A*11:01 (setting [1]); at least 77700 nM in the assay with HLA-A*68:01 (setting [1]).
With FIDRGSIKIK, the dissociation constant Kd with HLA-A*33:01 (setting [1]) worked out at 3960 nM; with HLA-A*31:01 (setting [1]) it was 2230 nM; with HLA-A*03:01 (setting [1]) it was 495 nM; with HLA-A*11:01 (setting [1]), 708 nM; with HLA-A*68:01 (setting [1]), 860 nM.
Taken in the same sequence, the figures for YLIHDNIMY were at least 77700 nM, at least 77900 nM, 10600 nM, 14900 nM and at least 26900 nM.
In the case of TLGSFTWFPH, the Kd in the assay with HLA-A*33:01 (setting [7]) was 13400 nM; with HLA-A*31:01 (setting [7]), 782 nM; with HLA-A*03:01 (setting [7]), 428 nM; with HLA-A*11:01 (setting [7]), 4990 nM; with HLA-A*68:01 (setting [7]) it was at least 25700 nM.
Consider SMTIREFPR, for which the Kd with HLA-A*33:01 (setting [1]) was 1.94 nM; in the assay with HLA-A*31:01 (setting [1]), 0.164 nM; in the assay with HLA-A*03:01 (setting [1]), 14800 nM; with HLA-A*11:01 (setting [1]), 599 nM; with HLA-A*68:01 (setting [1]), 200 nM.
On to AMDEFIQRYK, for which the Kd with HLA-A*33:01 (setting [5]) came to 13300 nM; with HLA-A*31:01 (setting [5]), 221 nM; in the assay with HLA-A*03:01 (setting [5]) it was 39 nM; with HLA-A*11:01 (setting [5]), 59 nM; with HLA-A*68:01 (setting [5]), 8300 nM.
As for RLSILSKDK, the dissociation constant (Kd) stood at 12900 nM in the assay with HLA-A*33:01 (setting [1]); 10700 nM in the assay with HLA-A*31:01 (setting [1]); 613 nM in the assay with HLA-A*03:01 (setting [1]); 1210 nM with HLA-A*11:01 (setting [1]); 1080 nM with HLA-A*68:01 (setting [1]).
